{"source": "paper PMC3287200", "about": "(Nucleic Acids Research, 2011)", "binders": {"B1": {"name": "49R (structured_RNA)", "RNA": "GGGCGAAUUCUAGAGAGAGAUUAGAUCCUGUCCGCGGCUAAAGCU"}, "B2": {"name": "49R-A (ssRNA)", "RNA": "B1 RNA with G17A"}, "B3": {"name": "28f (ssRNA)", "RNA": "GGGACACAAUGGACGAGGGAUUUGGGUGAUAUUUUUAGUCGGUCAUAACGGCCGACAUGAGAG"}, "B4": {"name": "AU5G (ssRNA)", "RNA": "AUUUUUG"}, "B5": {"name": "BsHfq-His H57A (natural protein, Bacillus subtilis)", "chain": "MKPINIQDQFLNQIRKENTYVTVFLLNGFQLRGQVKGFDNFTVLLESEGKQQLIYKAAISTFAPQKNVQLELE"}, "B6": {"name": "C-terminal 6x His fusion BsHfq, wild type (natural protein, Bacillus subtilis)", "chain": "B5 chain with A57H"}, "B7": {"name": "BsHfq-His Q30A (natural protein, Bacillus subtilis)", "chain": "B5 chain with Q30A, A57H"}, "B8": {"name": "BsHfq-His N40A (natural protein, Bacillus subtilis)", "chain": "B5 chain with N40A, A57H"}, "B9": {"name": "BsHfq-His F29A (natural protein, Bacillus subtilis)", "chain": "B5 chain with F29A, A57H"}, "B10": {"name": "BsHfq-His F41A (natural protein, Bacillus subtilis)", "chain": "B5 chain with F41A, A57H"}, "B11": {"name": "BsHfq-His R32A (natural protein, Bacillus subtilis)", "chain": "B5 chain with R32A, A57H"}, "B12": {"name": "BsHfq-His F24A (natural protein, Bacillus subtilis)", "chain": "B5 chain with F24A, A57H"}, "B13": {"name": "BsHfq-His K56A (natural protein, Bacillus subtilis)", "chain": "B5 chain with K56A, A57H"}}, "key": {"BsHfq-His [1]": {"biological_target": "T1, BsHfq-His (Bacillus subtilis, UniProt O31796 1-73)", "T1 sequence": "B5 chain with A57H", "assay": "UV cross-linking"}, "BsHfq-His Q30A": {"biological_target": "T2, BsHfq-His Q30A (Bacillus subtilis, UniProt O31796 1-73, Q30A)", "T2 sequence": "B5 chain with Q30A, A57H", "assay": "EMSA"}, "BsHfq-His F29A": {"biological_target": "T3, BsHfq-His F29A (Bacillus subtilis, UniProt O31796 1-73, F29A)", "T3 sequence": "B5 chain with F29A, A57H", "assay": "EMSA"}, "BsHfq-His F24A": {"biological_target": "T4, BsHfq-His F24A (Bacillus subtilis, UniProt O31796 1-73, F24A)", "T4 sequence": "B5 chain with F24A, A57H", "assay": "EMSA"}, "BsHfq-His R32A": {"biological_target": "T5, BsHfq-His R32A (Bacillus subtilis, UniProt O31796 1-73, R32A)", "T5 sequence": "B5 chain with R32A, A57H", "assay": "EMSA"}, "BsHfq-His F41A": {"biological_target": "T6, BsHfq-His F41A (Bacillus subtilis, UniProt O31796 1-73, F41A)", "T6 sequence": "B5 chain with F41A, A57H", "assay": "EMSA"}, "BsHfq-His N40A": {"biological_target": "T7, BsHfq-His N40A (Bacillus subtilis, UniProt O31796 1-73, N40A)", "T7 sequence": "B5 chain with N40A, A57H", "assay": "EMSA"}, "BsHfq-His [2]": {"biological_target": "T1, BsHfq-His", "assay": "UV cross-linking", "remark": "listed apart in the source"}, "BsHfq-His [3]": {"biological_target": "T1, BsHfq-His", "assay": "EMSA"}, "BsHfq (GST removed)": {"biological_target": "T8, BsHfq (GST removed) (Bacillus subtilis, UniProt O31796 1-73)", "T8 sequence": "B5 chain with A57H", "assay": "EMSA"}, "SEC + other: SDS-PAGE": {"biological_target": "the molecule itself", "assay": "SEC + other: SDS-PAGE"}}, "note": "Substitutions are numbered along the chain they refer to. Names and notes keep the numbering of the source."}
{"binder": "B1", "values": [{"measurement": "binding result", "setting": "BsHfq-His [1]", "result": "binds"}, {"measurement": "binding result", "setting": "BsHfq-His Q30A", "result": "no binding"}, {"measurement": "binding result", "setting": "BsHfq-His F29A", "result": "no binding"}, {"measurement": "binding result", "setting": "BsHfq-His F24A", "result": "no binding"}, {"measurement": "binding result", "setting": "BsHfq-His R32A", "result": "no binding"}, {"measurement": "binding result", "setting": "BsHfq-His F41A", "result": "binds"}, {"measurement": "binding result", "setting": "BsHfq-His N40A", "result": "binds"}]}
{"binder": "B2", "values": [{"measurement": "binding result", "setting": "BsHfq-His [2]", "result": "binds"}]}
{"binder": "B3", "values": [{"measurement": "binding result", "setting": "BsHfq-His [3]", "result": "no binding"}]}
{"binder": "B4", "values": [{"measurement": "binding result", "setting": "BsHfq (GST removed)", "result": "no binding"}]}
{"binder": "B5", "values": [{"measurement": "ability to form hexameric structure, percent of wild-type", "setting": "SEC + other: SDS-PAGE", "result": "~30 % of wild-type"}]}
{"binder": "B6", "values": [{"measurement": "stoichiometry N", "setting": "SEC + other: SDS-PAGE", "result": 6}]}
{"binder": "B7", "values": [{"measurement": "stoichiometry N", "setting": "SEC + other: SDS-PAGE", "result": 6}]}
{"binder": "B8", "values": [{"measurement": "stoichiometry N", "setting": "SEC + other: SDS-PAGE", "result": 6}]}
{"binder": "B9", "values": [{"measurement": "stoichiometry N", "setting": "SEC + other: SDS-PAGE", "result": 6}]}
{"binder": "B10", "values": [{"measurement": "stoichiometry N", "setting": "SEC + other: SDS-PAGE", "result": 6}]}
{"binder": "B11", "values": [{"measurement": "stoichiometry N", "setting": "SEC + other: SDS-PAGE", "result": 6}]}
{"binder": "B12", "values": [{"measurement": "stoichiometry N", "setting": "SEC + other: SDS-PAGE", "result": 6}]}
{"binder": "B13", "values": [{"measurement": "ability to form hexameric structure, percent of wild-type", "setting": "SEC + other: SDS-PAGE", "result": "~60 % of wild-type"}]}
